In article PMC4496297 one finds Kd data, which are given here for six substances.

In assay [1] the target is FimC-FimH (Escherichia coli) (UniProt P31697). Description: SPR. The conditions noted are these: cited from earlier work.
Assay [2] deals with FimC_(Q19C)-FimH chaperone-adhesin complex, FimC labeled with coumarin maleimide (CPM) (Escherichia coli) (UniProt P31697). Description: other fluorescence titration.
Assay [3] concerns the target FimCFimH, where FimC was labeled with the thiol-reactive probe coumarin maleimide (CPM) at Q19C, T51. The assay is described as follows: other fluorescence titration.

pKd: −log10 of the molar value.

Regarding FimD (from UniProt P30130), the pKd (usually the negative decadic logarithm of the Kd, by convention in mol/L) in assay [1] was 8.04.

“FimD_(ΔC1ΔC2) (purified, His-tag removed) (from UniProt P30130 46-878) (domain or fragment)” had a pKd in assay [2] of 6.41.

Substance “FimD_(ΔNΔplug) (purified, His-tag removed) (from UniProt P30130 46-878) (domain or fragment)” had a pKd in assay [2] of 7.39.

For the substance “FimDΔC2 (purified, His-tag removed) (from UniProt P30130 46-878) (domain or fragment)”, the pKd in assay [2] was 6.67.

In assay [2], “FimDΔN (purified, His-tag removed) (from UniProt P30130 46-878) (domain or fragment)” showed a pKd of less than 5.92.

The substance “WT FimD usher (purified, His-tag removed) (from UniProt P30130 46-878) (natural protein)” gave a pKd in assay [3] of 8.02.
